Measured values published in patent US20120064001A1 (AFFITECH RESEARCH, published 2012).

Experiments:
human VEGF-A [1] = target: T1, human VEGF-A (human, UniProt P15692-4 27-191, limits assumed); assay: SPR (Biacore T100); IgG over 100 RU human VEGF-A on a CM5 chip; 1:1 fit; 25°C
T1 construct: Sources differ between assays (Dr. Brekken; R&D Systems); also called VEGF-biotin (biotinylated form in the receptor ELISA)
Method: (§1) The background signal from a flow cell coated with BSA was subtracted from the binding curves. The binding affinity expressed as the KD was calculated by the 1:1 Fitting model using software belonging to the Biacore T100 machine.

human VEGF-A [2] = target: T1, human VEGF-A; assay: SPR (Biacore T100); IgG over 100 RU human VEGF-A on a CM5 chip; 1:1 fit; 37°C
Method: as §1

human VEGF-A [3] = target: T1, human VEGF-A; assay: SPR (Biacore 3000); IgG over immobilized VEGF-A; 1:1 binding model; initial study; initial study; Biacore 3000; IgG over immobilized VEGF-A
human VEGF-A [4] = target: T1, human VEGF-A; assay: SPR (Biacore T100); IgG over 100 RU human VEGF-A on a CM5 chip
Method: as §1

T1 sequence (P15692 other isoform, or with tags, fused parts or gaps limits assumed): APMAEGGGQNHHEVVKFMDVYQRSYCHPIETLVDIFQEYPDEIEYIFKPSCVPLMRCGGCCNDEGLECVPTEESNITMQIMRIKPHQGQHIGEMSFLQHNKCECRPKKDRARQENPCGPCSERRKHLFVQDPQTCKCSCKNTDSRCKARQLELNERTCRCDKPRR

B1: r84/PGN311 full length fully human IgG (antibody, V domains shown)
VH: QVQLVQSGAEVKKPGASVKVSCKASGGTFSSYAISWVRQAPGQGLEWMGGFDPEDGETIYAQKFQGRVTMTEDTSTDTAYMELSSLRSEDTAVYYCATGRSMVRGVIIPFNGMDVWGQGTTVTVSS
VL: not shown
notes: Human IgG1/kappa (Lonza pCon IgG1a and kappa vectors, CHO K1SV cells); also called r84 IgG; r84/PGN311 IgG
Kd (human VEGF-A [1]): 3.21 nM | Kd (human VEGF-A [2]): 5.22 nM | Kd (human VEGF-A [3]): 6.7 nM | fold reduction of KD, 25°C versus 37°C (human VEGF-A [4]): < 2 fold
